Laboratory results reported in PMC3081424 (Archives of biochemistry and biophysics, 2011).

T1: eYFP-PLCβ1 (wild type phospholipase Cβ1) (UniProt P10687 1-1216)
T1 sequence (looked up): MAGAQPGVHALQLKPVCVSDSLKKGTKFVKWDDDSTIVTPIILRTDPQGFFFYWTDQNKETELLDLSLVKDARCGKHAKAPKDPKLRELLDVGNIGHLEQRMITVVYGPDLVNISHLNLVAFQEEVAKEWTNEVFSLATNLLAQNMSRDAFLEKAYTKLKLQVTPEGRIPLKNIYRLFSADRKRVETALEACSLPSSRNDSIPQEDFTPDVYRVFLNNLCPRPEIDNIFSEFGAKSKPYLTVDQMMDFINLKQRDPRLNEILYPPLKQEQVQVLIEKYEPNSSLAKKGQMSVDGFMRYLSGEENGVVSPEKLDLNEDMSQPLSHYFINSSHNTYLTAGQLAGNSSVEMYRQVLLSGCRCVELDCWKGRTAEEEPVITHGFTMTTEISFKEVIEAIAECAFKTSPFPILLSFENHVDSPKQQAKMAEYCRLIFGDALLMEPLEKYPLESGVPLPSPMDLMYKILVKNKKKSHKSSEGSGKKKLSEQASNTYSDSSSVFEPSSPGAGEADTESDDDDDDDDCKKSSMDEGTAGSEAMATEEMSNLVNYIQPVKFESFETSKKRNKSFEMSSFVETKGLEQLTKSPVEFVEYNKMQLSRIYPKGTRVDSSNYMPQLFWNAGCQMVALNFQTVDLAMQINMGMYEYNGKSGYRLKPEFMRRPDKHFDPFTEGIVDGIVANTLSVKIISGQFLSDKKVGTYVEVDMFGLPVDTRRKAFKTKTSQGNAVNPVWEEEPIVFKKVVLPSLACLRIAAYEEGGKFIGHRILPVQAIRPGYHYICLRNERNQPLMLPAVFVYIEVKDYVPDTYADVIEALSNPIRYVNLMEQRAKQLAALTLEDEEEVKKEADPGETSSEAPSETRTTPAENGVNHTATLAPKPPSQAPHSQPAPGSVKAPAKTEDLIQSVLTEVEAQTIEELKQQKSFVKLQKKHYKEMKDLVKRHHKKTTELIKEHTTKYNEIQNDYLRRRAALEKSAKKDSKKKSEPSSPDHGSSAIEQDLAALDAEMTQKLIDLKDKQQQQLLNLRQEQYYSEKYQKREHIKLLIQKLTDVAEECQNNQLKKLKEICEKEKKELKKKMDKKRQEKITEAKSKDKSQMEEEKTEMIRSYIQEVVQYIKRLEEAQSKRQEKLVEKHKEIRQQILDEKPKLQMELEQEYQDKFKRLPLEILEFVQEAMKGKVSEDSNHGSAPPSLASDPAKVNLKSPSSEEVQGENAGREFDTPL

T2: eYFP-PLCβ1 S887A (UniProt P10687 1-1216, S887A)
T2 sequence (looked up): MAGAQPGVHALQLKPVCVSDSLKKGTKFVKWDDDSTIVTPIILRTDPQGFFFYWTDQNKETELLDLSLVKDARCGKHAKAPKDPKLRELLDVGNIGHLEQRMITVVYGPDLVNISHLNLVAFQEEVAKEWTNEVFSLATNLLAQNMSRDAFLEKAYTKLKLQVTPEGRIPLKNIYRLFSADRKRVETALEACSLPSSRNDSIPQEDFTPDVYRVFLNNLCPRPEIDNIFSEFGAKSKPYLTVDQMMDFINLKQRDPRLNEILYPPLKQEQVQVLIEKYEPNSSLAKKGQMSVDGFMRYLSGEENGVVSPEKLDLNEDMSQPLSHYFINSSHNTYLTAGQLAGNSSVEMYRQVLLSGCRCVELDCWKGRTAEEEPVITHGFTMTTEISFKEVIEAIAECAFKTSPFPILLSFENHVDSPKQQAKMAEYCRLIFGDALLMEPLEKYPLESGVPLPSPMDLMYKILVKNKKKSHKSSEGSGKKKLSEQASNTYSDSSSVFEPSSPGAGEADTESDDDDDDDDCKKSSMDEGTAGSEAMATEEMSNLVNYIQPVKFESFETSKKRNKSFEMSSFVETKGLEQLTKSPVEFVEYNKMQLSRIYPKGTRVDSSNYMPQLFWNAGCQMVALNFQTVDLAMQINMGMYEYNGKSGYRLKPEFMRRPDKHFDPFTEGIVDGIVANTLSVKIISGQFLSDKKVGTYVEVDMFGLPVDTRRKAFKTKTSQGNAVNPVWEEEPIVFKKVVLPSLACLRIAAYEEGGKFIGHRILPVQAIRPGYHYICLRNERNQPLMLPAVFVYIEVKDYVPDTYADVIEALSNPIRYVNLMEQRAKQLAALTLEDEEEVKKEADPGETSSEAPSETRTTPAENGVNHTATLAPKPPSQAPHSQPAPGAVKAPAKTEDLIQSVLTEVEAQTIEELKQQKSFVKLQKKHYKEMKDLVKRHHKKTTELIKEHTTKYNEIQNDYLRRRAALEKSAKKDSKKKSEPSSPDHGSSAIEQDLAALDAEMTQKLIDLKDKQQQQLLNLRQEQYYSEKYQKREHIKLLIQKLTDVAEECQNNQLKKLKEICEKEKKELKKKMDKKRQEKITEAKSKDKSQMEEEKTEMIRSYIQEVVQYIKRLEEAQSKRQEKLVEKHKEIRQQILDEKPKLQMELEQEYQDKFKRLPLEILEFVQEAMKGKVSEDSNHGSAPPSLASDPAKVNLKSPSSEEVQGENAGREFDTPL

T3: eYFP-PLCβ1 S887D (UniProt P10687 1-1216, S887D)
T3 sequence (looked up): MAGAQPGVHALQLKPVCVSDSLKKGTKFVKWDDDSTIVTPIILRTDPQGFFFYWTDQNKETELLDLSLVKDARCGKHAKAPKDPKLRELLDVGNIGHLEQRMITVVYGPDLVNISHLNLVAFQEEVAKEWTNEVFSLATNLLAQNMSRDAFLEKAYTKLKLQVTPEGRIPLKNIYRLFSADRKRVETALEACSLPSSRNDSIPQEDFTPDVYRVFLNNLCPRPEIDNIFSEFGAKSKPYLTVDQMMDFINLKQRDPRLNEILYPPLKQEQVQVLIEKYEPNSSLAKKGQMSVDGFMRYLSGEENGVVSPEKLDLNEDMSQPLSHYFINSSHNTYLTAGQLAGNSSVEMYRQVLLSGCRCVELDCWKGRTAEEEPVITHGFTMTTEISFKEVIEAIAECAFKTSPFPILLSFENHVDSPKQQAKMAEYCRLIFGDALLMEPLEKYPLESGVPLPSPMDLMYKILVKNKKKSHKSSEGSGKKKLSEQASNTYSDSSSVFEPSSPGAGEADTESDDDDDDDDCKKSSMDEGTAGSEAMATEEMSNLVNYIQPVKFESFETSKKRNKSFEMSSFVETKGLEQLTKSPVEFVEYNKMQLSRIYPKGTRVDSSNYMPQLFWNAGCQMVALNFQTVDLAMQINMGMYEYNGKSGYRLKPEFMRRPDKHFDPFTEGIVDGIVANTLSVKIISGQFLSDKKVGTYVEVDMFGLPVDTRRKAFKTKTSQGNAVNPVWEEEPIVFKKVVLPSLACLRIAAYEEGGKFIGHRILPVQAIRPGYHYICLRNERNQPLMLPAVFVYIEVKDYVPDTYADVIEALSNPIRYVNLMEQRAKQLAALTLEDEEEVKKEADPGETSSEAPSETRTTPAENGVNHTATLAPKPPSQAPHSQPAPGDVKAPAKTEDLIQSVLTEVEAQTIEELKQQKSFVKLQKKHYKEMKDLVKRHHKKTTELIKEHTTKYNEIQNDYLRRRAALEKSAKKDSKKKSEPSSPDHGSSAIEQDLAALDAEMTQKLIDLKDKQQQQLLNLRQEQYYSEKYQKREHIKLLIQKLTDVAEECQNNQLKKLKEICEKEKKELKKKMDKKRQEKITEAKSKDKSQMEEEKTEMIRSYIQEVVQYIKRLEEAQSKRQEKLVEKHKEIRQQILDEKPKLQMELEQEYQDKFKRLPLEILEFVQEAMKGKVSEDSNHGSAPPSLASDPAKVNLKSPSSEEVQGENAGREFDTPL


Tests used:
Gαq = assay: eCFP/eYFP FRET in living cells, basal; conditions: sites S887
[1] = molecular target: T1, eYFP-PLCβ1 (wild type phospholipase Cβ1); assay: FRET or BRET
eYFP-PLCβ1 S887A = molecular target: T2, eYFP-PLCβ1 S887A; assay: FRET or BRET
eYFP-PLCβ1 S887D = molecular target: T3, eYFP-PLCβ1 S887D; assay: FRET or BRET

other: FRET efficiency (Gαq; reference: wild type) | other: FRET efficiency (Gαq; reference: S887A) | FRET efficiency [1] [%] | FRET efficiency (eYFP-PLCβ1 S887A) [%] | FRET efficiency (eYFP-PLCβ1 S887D) [%] | Molecule
same; reference 38±4 |  |  |  |  | PLCβ1 S887A
same; reference 38±4 | same; reference 30±6 |  |  |  | PLCβ1 S887D
 |  | 38 ± 4 | 30 ± 6 | 39 ± 3 | eCFP-Gαq (natural protein, UniProt P21279 1-359, looked up) MTLESIMACCLSEEAKEARRINDEIERQLRRDKRDARRELKLLLLGTGESGKSTFIKQMRIIHGSGYSDEDKRGFTKLVYQNIFTAMQAMIRAMDTLKIPYKYEHNKAHAQLVREVDVEKVSAFENPYVDAIKSLWNDPGIQECYDRRREYQLSDSTKYYLNDLDRVADPSYLPTQQDVLRVRVPTTGIIEYPFDLQSVIFRMVDVGGQRSERRKWIHCFENVTSIMFLVALSEYDQVLVESDNENRMEESKALFRTIITYPWFQNSSVILFLNKKDLLEEKIMYSHLVDYFPEYDGPQRDAQAAREFILKMFVDLNPDSDKIIYSHFTCATDTENIRFVFAAVKDTILQLNLKEYNLV
